Test results taken from the nanobody polyreactivity screen of Harvey et al. (2022).

Experiment: yeast display, Sf9 membrane polyspecificity reagent, FACS + sequencing; frameworks hold sequencing errors
Procedure, shortened: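 Using colony PCR, genes from sorted yeast display clones were amplified, then sequenced on MiSeq at 2 × 250 and filtered by CDR length. The clones had been stained with 10% biotinylated, detergent-solubilized Sf9 membrane reagent for 1 hour at 4 °C and sorted by FACS into low and high (top ~1%) gates on anti-HA and streptavidin fluorescence. Polyreactivity labels come from the gate of origin.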

| Sequence | polyreactivity (PSR sort gate) |
| --- | --- |
| QVQLKESVGGLVQAGGILRLSCAASGNIFPTDRMAWYRQAPGTELEFVATISHGGSTNYADSVKGRFTISRDNSKNTLYLQMNSLKPEDTAVYYWWGWSLGRWRHYYWGQGTQVTVSS | low polyreactivity |
| QVQLLESGDGLVQAVGSLRLSCAASGYISGYYYMGWYRQAPGKERELVAGIDAFGSSTNYADCVKGRFTISRDNAINSVYLQMNSLKPEDTAVYYCAARPDGDRLFSYWGQGTQVTVSS | low polyreactivity |
| QVQLLESGGALVQAAGSLRLSCAASGYTIGRYAIGWYRHAPGKDRELVAAITWSGGSTYYADSVKGRFTISRDNAKNTVYLQMNSLKPEDTAVYYCAKRYRYYSYGPYGMYYWGQGTQVSVSS | high polyreactivity |
| QVQLLESGGGIVQAGGSLRLSCAASGRINAMGWYRQAPGKERELVAVITLRGGSTYYADSVKGRFTISRDNAKNTVYLQMNSLKPEYTAVYYCAAVYRWPDAKYDYWGQGTQVSVSS | low polyreactivity |
| QVQLLESGGGIVQAGGSLRLSCGASGSTFTLNAMGWYRQAPGTEREFVADISWSSGRTYYADSVKGRFTISRDNAKNTVYVQMNSLKQEDTAVYYCATDDFWNVKFYAYYPEFDYWGQGTQVNVSS | low polyreactivity |
| QVQLLESGGGLDKAGVRIRLSCASSGIIFAWYAMVWYRQAHRKEMELVAAISWSCGSTYYAYSVKLRFTISRDNAKNTVDLQMNSLTPEDTAVYYCATYPRRQGKYAYWGQGTQVTVSS | high polyreactivity |
| QVQLLESGGGLFQAGGSLRLSCAASGRIFDPYAMGWYRKAPWKETELVAAISWRGGSTNYADSVKGRFTISRDNAKNTVYLQMNSLKPEDTAVYYCAAVPVRYRYSYGYYYWGQGTQVTVSS | high polyreactivity |
| QVQLLESGGGLFQPGGSLRLSCAASGRTFDGNVMGWYRQAPGKETELVAAITASGGRTYYADSVKGRFTISSDNAKNTVYLQMNSLKAEDTAVYYCNAGIRRSRGTMDYWGQGTQVTVSS | high polyreactivity |
| QVQLLESGGGLLQAGGSLRLSCAASGLTFGKYAMGWYRQAPGKERELVAAINSSGGSTYYADSVKGRFTISRDNAKNTVYLQMNSLKPEDSAVYYRAVAVYRLIYFVYNYWGQGTQVTVSS | low polyreactivity |
| QVQLLESGGGLVHSGGSLRLSCASSGRIFPSNTMGSYRPAPGKERELVADISFGGGSTSYADSVKGRFTISRDNAKNTVYLQMNRLKPEDTAVYYCNADRDDDYDYWGQGTQVTLSS | low polyreactivity |
| QVQLLESGGGLVQAGASLRLSCAASGSIFLPNAMGWSRQAPGKERELVAAISWSGGSTYADSVKGRITISRDNAKNTVYLQMNILKPEDTAFYFCAADDGFTPRDLYVCYDYWGQGTQVTVSS | low polyreactivity |
| QVQLLESGGGLVQAGCSLRLSCAASGFTFKSNAMGWYRQAPGKESELVARINRSGGSTYYADSVKGRFTISRYNAKNTVYLQMNSLKPEDTAVYYCARGRYTLYESKYDYWGQGTQVTVSS | high polyreactivity |
| QVQLLESGGGLVQAGGCLRLSCAASGFTFYGYARGWYRQAPGIERELVAGIAKCGTRTYYADSLKGRFTISRDNAENTVFFQMNSLKPEDTAVYYCAARLRRGLTATWYYYWGQGSQVTVSS | high polyreactivity |
| QVQLLESGGGLVQAGGSLGCAASGNISTRSEMGWYRQAPGKEREFVATINSGGITNYADSVKGRFTISRDNENNTVYLGMNSLKPEDTAVYYRAVYVYFSDPYDYWGQGTQVTVSS | low polyreactivity |
| QVQLLESGGGLVQAGGSLRLSCAASGFIICYNGMGWYRQAPGKERELVAGITYSDGSTYYADSVKGRFTISRDNAKITVYLQMNSLKPEDTAVYYCAVDVFYYWAEDYDYWGQGTQVTVSS | low polyreactivity |
| QVQLLESGGGLVQAGGSLRLSCAASGFNFGVYAMGWYRQAPGKERELVAAITRSGGSTYYADSVKGRYTISRDNAKNSVYLQMNSLNPEDTAVYYCAARARDHYGYWGQGTQVSVSS | high polyreactivity |
| QVQLLESGGGLVQAGGSLRLSCAASGFTFNPYAMGWYRQAPGKERELVARISRGTSTNYADSVKGRFTISRDNAKNTVYLQMNSLKPEDTAVYYCAASYGSFHTYLDYNYWGQGTQVTVSS | low polyreactivity |
| QVQLLESGGGLVQAGGSLRLSCAASGFTFYRYAMGWYRQAPGKERELVAVISGSGTSTYYADSVKGRFTISRDIAKNTVYLQMNSLKQEDTAVYYCAASQSIFSGHVRYRVDYDSWGQGTQVSVSS | high polyreactivity |
| QVQLLESGGGLVQAGGSLRLSCAASGFTLAFNAMGWYRQAPGKERELVASITSSSGSTYYADSVKGRFTISRDNAKNTVYLQLNSLKPEDTAVYYCARDLAIPQVLSQPIFGYWGQGTQVTVSS | low polyreactivity |
| QVQLLESGGGLVQAGGSLRLSCAASGGIFPAYAMGWYRQAPGKERELFADITNGGSTYYADSVKGRFTISRDNAKNTVYLQMNSLKPEDTAVYYCNAREFWRTRFGCGYPYRRNMDYWGQGTQVTVSS | low polyreactivity |
| QVQLLESGGGLVQAGGSLRLSCAASGIIFSSNAMGWYRKAPGKERELVAAITRRGGSTRYADSVKGRFTISRDNAKNTVYLQMNSLKPEDTAVYYCNALSGYPYRWGISYPMDYWGQGTQVTVSS | high polyreactivity |
| QVQLLESGGGLVQAGGSLRLSCAASGIIFVRYVMGWYRQAPVKERELVAAINWSGGSTYYADSVKGRFTISRDNAKNTVYLQMNSLKPEDTAVYYCAAGSARDDDYWGQGTQVTVSS | high polyreactivity |

| Sequence | polyreactivity (PSR sort gate) |
| --- | --- |
| QVQLLESGGGLVQAGGSLRLSCAASGNTFYPNAMGWYRPAPGKETELVAAISSSGGSTYYADSVKGRFTISRDNAKNTVYLQMKSLNPEDTAVYYCASEFDYPLSGEYYYWGKGTQVTVSS | high polyreactivity |
| QVQLLESGGGLVQAGGSLRLSCAASGRILTGYAMGWYRQAPGKERELFSSINWRGGSTYYADSVKGRFTISRDNAKNTVYLQMISLIPEDTAVYYCAARVLVTGTYYTIYDYWGQCTQVTVSS | high polyreactivity |
| QVQLLESGGGLVQAGGSLRLSCAASGSISVAYAMGWYRQAPGKERELVATIRSGDSTYYADSVKGRFTISRDNAKNTVYLQMNSLKPEDTAVYYCNADATDSYPEKDEHDSWGQGTQVTVSS | low polyreactivity |
| QVQLLESGGGLVQAGGSLRLSCAASGSTFASYAMGWYRQAPGKETELVAAITRTGSTYYADSVKGRFTISRDNAKNTVYLQMNSLKPEDTAVYYCAKLWIGGYKYYYWGQGTQVTVSS | high polyreactivity |
| QVQLLESGGGLVQAGGSLRLSCAASGSTFRYYAMGWYRQAPGKERELVAAISKSGGRTYYADSVKGRFTISRDNAKHTVYLQMNSLKPEDTAVYYCAADSKEVRYDYWGQGTQVTVSS | high polyreactivity |
| QVQLLESGGGLVQAGGSLRLSCAASGSTFYCYTMGWYRQAPGKERELVARISSSGSTNYADSVKGRFTISRDNAKNTVYLQMNSLKPEDTAVYYCNKDWIYRGYDYWGQGTQVTVSS | high polyreactivity |
| QVQLLESGGGLVQAGGSLRLSCAASGYTFASYAMGWYRQAPGKERELVASISNGGGTNYADSVKGLFRISRDNAKNTVYLQMNSLKPEDTAVYYCAKRYRYYSHSYYYWGQCTQVTVSS | high polyreactivity |
| QVQLLESGGGLVQAGGSLRLSCAASGYTFTWYAMGWYRQAPGTEREFVAAISIGGDSTYYADSVKGRFTNSRDNAKNTVYLLMNSLIPEDTAVYYCAADTYPRWILLIGELQVETSYDYWGQGTQVTVSS | low polyreactivity |
| QVQLLESGGGLVQAGGSLRLSCAASRTISYAGTRLWYRQAPGKEREFVAGIGVGSNTNYADSVKGRYTIIRDNAINTVYLQMTSLKPEDTAVYYCAVGGYAPLGRPFWGQGTQVSVSS | low polyreactivity |
| QVQLLESGGGLVQAGGSLRLSCAASVSIFPKNTMGWYIQAPGKERELVAAISKSGGSTYYADSVKGRFTISRDNAKNTVYLQMNSLKPEDTAVYYCAAALGLRSTSWGRRGGGGDYWGQGTQVTGSS | high polyreactivity |
| QVQLLESGGGLVQAGGSLRLSCAPSGSTIAWYAMGWYIHAPGKERELVAAITQSGGSTYYADSVKGRFTISRDNEKNTVYLLMIRLKPEDTAVYYCAAYPGYAKYRYDFWGPGTQVTVSS | high polyreactivity |
| QVQLLESGGGLVQAGGSLRLSCASSGFIFAIYAMGWYRQAPGKERELVAAITSSSSTYADSVKGRFTISRDNAKNTVYLQMNSLKPEDTAVYYCAADTYSYRYSNDYWGQGTQVTVSS | low polyreactivity |
| QVQLLESGGGLVQAGGSLRLSCASSGRTFRSYGMGWYRQAPGKERELVAVISWRDGSTFYADSVKGRFTISRDNAKNTVYLQMNSLKPEDTAVYYCNARGDVIVTPPKFSFKYEYWGQGTQVTVSS | low polyreactivity |
| QVQLLESGGGLVQAGGSLRLSCASSGRTFVYYAMGRYRQAPGKERELVAAITFSGGSTYYADSVKGRFTISRDNAKNTVYLQMNSLKPEDTAVYYCAAQYRYSYPLGDYWGQGPQVTVSS | low polyreactivity |
| QVQLLESGGGLVQAGGSLRLSCMASGSILADRISWYRQAPRIEHELVATLYDGGITYYADSMKGRFTMSRDNAKNTVYLQMNSLRPEDTAVYYCGASFEGYRYHVYCGQGTQVTVSS | low polyreactivity |
| QVQLLESGGGLVQAGGSLRLTCAASGFIFDQYGMGWYRQAPGKERELVASITSTGSTYYADSVKGRFTISRDNAKNTVYLQMNSLKPEDTAVYYCATDSYDGMDYWGHGTQVTVSS | low polyreactivity |
| QVQLLESGGGLVQAGGSLRLTCAASGLTFSNYAMGWYRQAPGKERELVADIRSGGNTNYADSVKGRFTISRDNAKNTVYLQMNSLKPEDTAVYYCATDGYRIDVYHPDYRYDYWGQGTQVTVSS | low polyreactivity |
| QVQLLESGGGLVQAGGSLRLTCAASGRTFYRNAMGWYRPAPGKERELVAAISSGGSTTYADSVKGRFTISRDNAKNTVYLQMNSLKPEDTAVYYCAARSHAGSVSPRLKEYDYWGQGTQVTVSS | low polyreactivity |
| QVQLLESGGGLVQAGGSLSLTCAASGSTFTRYVMGWYRQAPGTETELVAAISSNGGRTYYADSVKGRFTISRDNAKNTVDLQMTSLKPEDTAVYYCNLVRYAYNASVVYWGQGTQVTVSS | high polyreactivity |
| QVQLLESGGGLVQAGGTLRLSCAASGRTFYVNAMGWYRQAPGKERELVAAIRRGGSPNYADSVKGRFTISRDNEQNTVYLQMNSLKPEDTAVFYCNASPCGRKQYISPYDYRGQGTQVTVSS | low polyreactivity |
| QVQLLESGGGLVQAGGTLRLSCSASGGIFVNYAMGWYRQAPGKERELVAAISRSGGSTYYADSVKGRFTISRDNAKNTVYLQLNSLKPEVTAVYYCNAVLQKYRFEYDYWGQGSQVTVSS | high polyreactivity |
